Assay results as given in patent US20240400614A1, “CLEAVABLE PEPTIDES AND METHODS OF USE THEREOF” (Bright Peak Therapeutics AG, priority 2023, published 2024).
Square brackets hold non-standard residues; d marks the D form. Ends that are not written are not given here. Tyr(3-NO2) = N[C@@H](Cc1ccc(O)c([N+](=O)[O-])c1)C(=O)O; Nle = CCCC[C@H](N)C(=O)O; 2Abz = Nc1ccccc1C(=O)O

What was measured:
Assay type in all cases: biochemical
uPA = uPA (Homo sapiens, UniProt P00749); assay: FRET peptide cleavage efficiency with uPA
MMP-9 = target: T1, MMP-9 (Homo sapiens, UniProt P14780); assay: FRET peptide cleavage efficiency with MMP-9 (standard pH 7.5; also pH 6.5)
T1 construct: purchased SIGMA PF024

matriptase = target: T2, matriptase (Homo sapiens, UniProt Q9Y5Y6); assay: FRET peptide cleavage efficiency with matriptase
T2 construct: purchased R&D Systems 3946-SEB
T2 sequence (Q9Y5Y6 615-855 limits assumed): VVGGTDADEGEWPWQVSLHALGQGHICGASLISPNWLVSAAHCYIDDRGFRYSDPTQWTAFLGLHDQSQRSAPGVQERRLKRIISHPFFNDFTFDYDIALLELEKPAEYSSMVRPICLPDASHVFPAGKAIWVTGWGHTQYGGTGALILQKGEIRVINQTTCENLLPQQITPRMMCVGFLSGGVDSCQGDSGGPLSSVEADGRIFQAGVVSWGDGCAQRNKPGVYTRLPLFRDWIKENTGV

MMP-2 = target: T3, MMP-2 (Homo sapiens, UniProt P08253); assay: FRET peptide cleavage efficiency with MMP-2
T3 construct: purchased SIGMA PF023
T3 sequence (P08253 110-660): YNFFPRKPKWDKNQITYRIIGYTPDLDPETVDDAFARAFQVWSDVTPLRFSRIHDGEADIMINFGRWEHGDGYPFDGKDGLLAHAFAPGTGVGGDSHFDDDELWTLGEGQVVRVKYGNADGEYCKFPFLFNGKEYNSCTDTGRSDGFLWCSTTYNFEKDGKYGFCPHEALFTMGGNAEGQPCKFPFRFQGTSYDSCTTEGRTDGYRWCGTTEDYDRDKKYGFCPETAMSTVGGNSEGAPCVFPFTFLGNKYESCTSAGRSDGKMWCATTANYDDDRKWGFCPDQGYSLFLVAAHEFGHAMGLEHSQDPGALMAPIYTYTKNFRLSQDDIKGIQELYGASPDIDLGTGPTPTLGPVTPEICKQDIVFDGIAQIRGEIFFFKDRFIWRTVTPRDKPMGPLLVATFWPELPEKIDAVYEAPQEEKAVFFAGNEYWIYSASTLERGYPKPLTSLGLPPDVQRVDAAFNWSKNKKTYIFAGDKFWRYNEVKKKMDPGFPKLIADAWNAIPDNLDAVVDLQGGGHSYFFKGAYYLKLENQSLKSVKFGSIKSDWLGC

MMP-7 = target: T4, MMP-7 (Homo sapiens, UniProt P09237); assay: FRET peptide cleavage efficiency with MMP-7 (standard pH 7.5; also pH 6.5)
T4 construct: purchased SIGMA CC1059
T4 sequence (P09237 95-267): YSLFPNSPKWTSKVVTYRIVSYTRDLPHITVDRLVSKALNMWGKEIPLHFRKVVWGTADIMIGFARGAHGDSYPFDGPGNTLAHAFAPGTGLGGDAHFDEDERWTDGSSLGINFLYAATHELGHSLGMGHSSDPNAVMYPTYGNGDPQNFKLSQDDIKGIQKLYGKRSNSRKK

[1] = t = 15 min, 200 uM linker, 1 ug/ml protease, 37° C., buffer A pH 8.5
[2] = t = 60 min, 200 uM linker, 1 ug/ml protease, 37° C., buffer A pH 8.5
[3] = t = 120 min, 200 uM linker, 1 ug/ml protease, 37° C., buffer A pH 8.5
[4] = t = 15 min, 200 uM linker, 1 ug/ml protease, 37° C., buffer B pH 9.0
[5] = t = 60 min, 200 uM linker, 1 ug/ml protease, 37° C., buffer B pH 9.0
[6] = 200 uM linker, 1 ug/ml protease, 37° C., buffer B pH 9.0
[7] = t = 15 min, 200 uM linker, 1 ug/ml protease, 37° C., buffer C pH 7.5
[8] = t = 60 min, 200 uM linker, 1 ug/ml protease, 37° C., buffer C pH 7.5
[9] = t = 120 min, 200 uM linker, 1 ug/ml protease, 37° C., buffer C pH 7.5
[10] = t = 15 min, standard conditions (Table 8)
[11] = t = 60 min, standard conditions (Table 8)
[12] = t = 120 min, standard conditions (Table 8)

T1 sequence (P14780 94-707): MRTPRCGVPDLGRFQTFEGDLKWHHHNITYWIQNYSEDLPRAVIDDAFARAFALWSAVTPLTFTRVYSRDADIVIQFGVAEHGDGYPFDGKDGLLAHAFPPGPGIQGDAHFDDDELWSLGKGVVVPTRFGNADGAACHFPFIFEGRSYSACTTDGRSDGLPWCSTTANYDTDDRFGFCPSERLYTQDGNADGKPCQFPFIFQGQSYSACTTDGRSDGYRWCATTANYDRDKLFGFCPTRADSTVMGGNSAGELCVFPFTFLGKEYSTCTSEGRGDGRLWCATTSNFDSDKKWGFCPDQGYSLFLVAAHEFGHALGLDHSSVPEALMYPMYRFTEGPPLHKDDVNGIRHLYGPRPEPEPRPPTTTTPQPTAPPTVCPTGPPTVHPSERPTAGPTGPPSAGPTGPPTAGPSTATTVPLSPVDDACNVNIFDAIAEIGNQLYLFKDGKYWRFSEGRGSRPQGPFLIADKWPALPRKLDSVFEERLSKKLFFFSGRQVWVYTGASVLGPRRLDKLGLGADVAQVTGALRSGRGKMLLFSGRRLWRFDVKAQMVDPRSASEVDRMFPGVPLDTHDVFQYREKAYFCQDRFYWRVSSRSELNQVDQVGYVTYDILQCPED

| Substance | % cleavage uPA t = 60 min (uPA; pH 6.5, t = 60 min (Table 7)) | % cleavage uPA t = 120 min (uPA; pH 6.5, t = 120 min (Table 7)) | % cleavage uPA t = 15 min (uPA; [1]) | % cleavage uPA t = 60 min (uPA; [2]) | % cleavage uPA t = 120 min (uPA; [3]) | % cleavage MMP-9 t = 15 min (MMP-9; t = 15 min (Table 9)) | % cleavage MMP-9 t = 60 min (MMP-9; t = 60 min (Table 9)) | % cleavage MMP-9 t = 120 min (MMP-9; t = 120 min (Table 9)) | % cleavage Matriptase t = 15 min (matriptase; [4]) | % cleavage Matriptase t = 60 min (matriptase; [5]) | % cleavage Matriptase t = 120 min (matriptase; [6]) | % cleavage MMP-2 t = 15 min (MMP-2; t = 15 min (Table 9)) | % cleavage MMP-2 t = 15 min (MMP-2; [7]) | % cleavage MMP-2 t = 60 min (MMP-2; t = 60 min (Table 9)) | % cleavage MMP-2 t = 60 min (MMP-2; [8]) | % cleavage MMP-2 t = 120 min (MMP-2; t = 120 min (Table 9)) | % cleavage MMP-2 t = 120 min (MMP-2; [9]) | % cleavage MMP-7 t = 15 min (MMP-7; t = 15 min (Table 9)) | % cleavage MMP-7 t = 60 min (MMP-7; t = 60 min (Table 9)) | % cleavage MMP-7 t = 120 min (MMP-7; t = 120 min (Table 9)) | further results |
| --- | --- | --- | --- | --- | --- | --- | --- | --- | --- | --- | --- | --- | --- | --- | --- | --- | --- | --- | --- | --- | --- |
| SGRVANLVG (not fully specified (N-terminus, C-terminus)) [LNK017] | 0% | 0% | 1% | 6% | 12% | 43% | 94% | 100% | 29% | 81% | 96% | 89% | 90% | 97% | 99% | 100% | 99% | 62% | 96% | 100% | % cleavage uPA t = 60 min (uPA; pH 7.5, t = 60 min (Table 7)): 7%; % cleavage uPA t = 120 min (uPA; pH 7.5, t = 120 min (Table 7)): 13%; % cleavage Matriptase t = 15 min (matriptase; pH 6.5, t = 15 min (Table 7)): 5%; % cleavage Matriptase t = 60 min (matriptase; pH 6.5, t = 60 min (Table 7)): 26%; % cleavage Matriptase t = 15 min (matriptase; pH 7.5, t = 15 min (Table 7)): 25%; % cleavage Matriptase t = 60 min (matriptase; pH 7.5, t = 60 min (Table 7)): 68%; % cleavage MMP-2 t = 15 min (MMP-2; pH 6.5, t = 15 min (Table 7)): 93%; % cleavage MMP-2 t = 60 min (MMP-2; pH 6.5, t = 60 min (Table 7)): 100%; % cleavage MMP-2 t = 15 min (MMP-2; pH 7.5, t = 15 min (Table 7)): 37%; % cleavage MMP-2 t = 60 min (MMP-2; pH 7.5, t = 60 min (Table 7)): 100% |
| RGRKSPY-Nle-LQG ([2Abz]RGRKSPY[Nle]LQG[Tyr(3-NO2)]-NH2) [LNK038] | – | – | – | – | – | 23% | 71% | 97% | – | – | – | 19% | – | 55% | – | 76% | – | 22% | 69% | 92% | % vcleavage uPA t = 15 min (uPA; [10]): 0%; % cleavage uPA t = 60 min (uPA; [11]): 0%; % cleavage uPA t = 120 min (uPA; [12]): 0%; % cleavage MMP-9 t = 15 min (MMP-9; [10]): 23%; % cleavage MMP-9 t = 60 min (MMP-9; [11]): 71%; % cleavage MMP-9 t = 120 min (MMP-9; [12]): 97%; % cleavage Matriptase t = 15 min (matriptase; [10]): 100%; % cleavage Matriptase t = 60 min (matriptase; [11]): 100%; % cleavage Matriptase t = 120 min (matriptase; standard conditions (Table 8)): 100%; % cleavage MMP-2 t = 60 min (MMP-2; [11]): 55%; % cleavage MMP-2 t = 120 min (MMP-2; [12]): 76%; % cleavage MMP-7 t = 15 min (MMP-7; [10]): 22%; % cleavage MMP-7 t = 60 min (MMP-7; [11]): 69%; % cleavage MMP-7 t = 120 min (MMP-7; [12]): 92% |
| SGRVLRKAGPANLVG ([2Abz]SGRVLRKAGPANLVG[Tyr(3-NO2)]-NH2) [LNK014] | 0% | 0% | 0% | 2% | 7% | 98% | 99% | 100% | 97% | 95% | 95% | 91% | 93% | 96% | 97% | 100% | 97% | 25% | 79% | 100% | % cleavage uPA t = 60 min (uPA; pH 7.5, t = 60 min (Table 7)): 0%; % cleavage uPA t = 120 min (uPA; pH 7.5, t = 120 min (Table 7)): 0%; % cleavage Matriptase t = 15 min (matriptase; pH 6.5, t = 15 min (Table 7)): 70%; % cleavage Matriptase t = 60 min (matriptase; pH 6.5, t = 60 min (Table 7)): 100%; % cleavage Matriptase t = 15 min (matriptase; pH 7.5, t = 15 min (Table 7)): 100%; % cleavage Matriptase t = 60 min (matriptase; pH 7.5, t = 60 min (Table 7)): 100%; % cleavage MMP-2 t = 15 min (MMP-2; pH 6.5, t = 15 min (Table 7)): 100%; % cleavage MMP-2 t = 60 min (MMP-2; pH 6.5, t = 60 min (Table 7)): 100%; % cleavage MMP-2 t = 15 min (MMP-2; pH 7.5, t = 15 min (Table 7)): 100%; % cleavage MMP-2 t = 60 min (MMP-2; pH 7.5, t = 60 min (Table 7)): 100% |
| SSRGRRGPYMLQG ([2Abz]SSRGRRGPYMLQG[Tyr(3-NO2)]-NH2) [LNK021] | 0% | 0% | 5% | 16% | 27% | 60% | 98% | 100% | 100% | 100% | 100% | 20% | 23% | 64% | 66% | 100% | 88% | 22% | 69% | 83% | % cleavage uPA t = 60 min (uPA; pH 7.5, t = 60 min (Table 7)): 10%; % cleavage uPA t = 120 min (uPA; pH 7.5, t = 120 min (Table 7)): 19%; % cleavage Matriptase t = 15 min (matriptase; pH 6.5, t = 15 min (Table 7)): 100%; % cleavage Matriptase t = 60 min (matriptase; pH 6.5, t = 60 min (Table 7)): 100%; % cleavage Matriptase t = 15 min (matriptase; pH 7.5, t = 15 min (Table 7)): 100%; % cleavage Matriptase t = 60 min (matriptase; pH 7.5, t = 60 min (Table 7)): 100%; % cleavage MMP-2 t = 15 min (MMP-2; pH 6.5, t = 15 min (Table 7)): 26%; % cleavage MMP-2 t = 60 min (MMP-2; pH 6.5, t = 60 min (Table 7)): 64%; % cleavage MMP-2 t = 15 min (MMP-2; pH 7.5, t = 15 min (Table 7)): 24%; % cleavage MMP-2 t = 60 min (MMP-2; pH 7.5, t = 60 min (Table 7)): 64% |
| RGRRVANYFGKL ([2Abz]RGRRVANYFGKL[Tyr(3-NO2)]-NH2) [LNK055] | – | – | 2% | 4% | 8% | 35% | 81% | 100% | 67% | 100% | 100% | 85% | 85% | 100% | 100% | 100% | 100% | 0% | 0% | 0% | – |
